Experimental data reported in paper PMC5156906.

Biological target: Calcineurin A subunit alone, residues 1-348 (human) (UniProt Q08209)
Assay: ITC; NFAT peptides, PALB2 or SYDE2 titrated into calcineurin in the cell; 25 °C; 20 mM Tris pH 7.5, 100 mM NaCl, 1.0 mM CaCl2, 0.5 mM TCEP; one set of sites model with n=1; averages of >=3 experiments (SYDE2: 2)

| Kd [µM] | Binder |
| --- | --- |
| 4.1 | ESPRIEITS [NFATc1 PxIxIT peptide 116…124] |
| 2.4 | DDQYLAVPQHPYQWAKPK [NFATc1 LxVP long peptide 383…400] |
